Test results reported in doi:10.1101/2024.06.20.599911 (bioRxiv, 2024).

Biological target: T1, GFP-AtCNIH5 (genomic AtCNIH5pro: GFP-AtCNIH5 in cnih5) (Arabidopsis thaliana, UniProt Q9SZ74 1-135)
T1 sequence (looked up): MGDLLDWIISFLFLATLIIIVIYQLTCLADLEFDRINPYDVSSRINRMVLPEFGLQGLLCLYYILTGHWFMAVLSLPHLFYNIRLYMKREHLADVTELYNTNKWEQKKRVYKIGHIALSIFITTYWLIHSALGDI
Test: co-IP

B1: endogenous AtPHF1 (natural protein, UniProt Q8GYE0 1-398, looked up)
chain: MEIEEASRESGHVVCGSWIRRPKKVNWVLIAKASKRRGSSVSSPALLNIFSFDPITASLSSSPLATHTLKDSDGDPVAVSVHPGGDYFVCSTSKGGCKLFELVGGATGITILAKELLPLQNAGLQKCMAFSFDGSKLAVGGVDGCLRIMEWPNLSVILDEPKAHKSIRDMDFSLDSEFLATTSTDGSARIWKAEDGFPLSTLERSGDENIELCRFSKDGTKPFLFCAAQRGDTPMVNVYDISTWKKLGFKKLSRKTASTMAVSLDGKYIALGGKDGDVSVAEVKTMEIYHYSKRLHLGQSIASLEFCPSERVMLTTSSEWGEMVTKLTVPKEWKEWQIYALLFCLFMASVIAAYVFFENSDSFWKLPMGKDQKRPKISLFGGSSSTPSEDHSRWNLDL
fold co-immunoprecipitated against the free GFP control: ~40 times
